Source: the supplement of paper PMC9170038

Tested on: MS2 coat protein
Assay: apparent KD of MS2 coat protein; designed switch direction (-1 OFF switch, 1 ON switch): 1; higher = weaker reporter binding
Outline: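 Normalised cluster fluorescence was curve-fitted, and each design's median over clusters is its apparent KD. Before this, SNAP-549-labelled MS2 coat protein was titrated from 0.7 or 1.5 nM, doubling to 3 µM, over RNA switches transcribed on Illumina chips by stalled E. coli RNA polymerase. Titrations had no input, 200 uM small-molecule ligand, or an oligonucleotide input, and steps lasted 0.8–1.5 h (lowest) to 10–20 min (highest).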

[1] = input ligand: microRNA oligo, concentration not stated
[2] = Eterna round: R95, input ligand: microRNA oligo, concentration not stated
[3] = Eterna round: R95, input ligand: FMN 200 uM
[4] = Eterna round: R95, input ligand: none

Sequence	apparent KD of MS2 coat protein (input ligand: FMN 200 uM) [µM]	apparent KD of MS2 coat protein [1] [µM]	apparent KD of MS2 coat protein (input ligand: none) [µM]	apparent KD of MS2 coat protein [2] [µM]	apparent KD of MS2 coat protein [3] [µM]	apparent KD of MS2 coat protein [4] [µM]
GCACAUGAGGAUCACCCAUGUGCGCUUGGUUGUCCAAGCGCACAGGAUAUACCUCCAAAUGGGAGGUAGAAGGGUGAAAAGAAG [Leones] (Eterna round: R96, puzzle: Same State NG 3)	0.0151	0.0111	0.011			
GCAGAACAUGAGGAUCACCCAUGUCUCUAAAGUCGAGGAUAUGGGCAGGUUAUAUCCGAACCAGAAGGCGAUCUGC [SS1 Teenbexe 13] (puzzle: Same State 1)				0.108		
GCAGGACAUGAGGAUCACCCAUGUUCCAAAUAUUGAGGAUAUGGAUACGGUAUAUCCGAACCAGAAGGCAACCUGC [SS1 Teenbexe 21] (puzzle: Same State 1)				0.0221	0.0253	0.0233
GCAUCACAUGAGGAUCACCCAUGUCUUCGGAGUCGAGGAUAUGGUCACUGUAAACAGUGGCCAGAAGGCGAGGUGC [SS1 - Son of Teenbexe v4] (puzzle: Same State 1)				0.0534		
GCCAACUCAUGAGGAUAUGGCACCUUAAUGGUGCCAGAAGGCAUGUCUAUUGACAUGAGGAUCACCCAUGUAUUUUUGUUGGCA [Fiskers NG1ss - 26] (Eterna round: R96, puzzle: Same State NG 1)	0.12	0.75	1.21			
GCCAUCGCAUGAGGAUAUGGCACCGAAACGGUGCCAGAAGGCAUGUCGUAAGACAUGAGGAUCACCCAUGUAGUUAAGAUGGCA [Mat - Same State NG 1 - JL mod - D91] (Eterna round: R96, puzzle: Same State NG 1)	0.215	0.229	0.907			
GCCCGUAGCCACAUGAGGAUCACCCAUGUGCAGUUGUGAUCCGAGGAUAUUGCUAUUUGAGAUAGUAAGAAGGUGGACCGCGGU [Eternabot solution 31] (Eterna round: R96, puzzle: Same State NG 3)	0.109	0.0844	0.143			
GCCGCAAGGGCAGGAUAUGGGUCCAGAACGCAAAUGCGCUCUGGUACAUGAGGAUCACCCAUGUCCCAGAAGGGCCCAAGCGGC [Isusara] (Eterna round: R96, puzzle: Same State NG 2)	0.0165	0.0965	0.106			
GCCGCAAGGGCAGGAUAUGGGUCCAGAGCGCAAAUGCGCUCUGGUACAUGAGGAUCACCCAUGUCCCAGAAGGGCCCAAGCGAC [Xeatvearbe] (Eterna round: R96, puzzle: Same State NG 2)	0.0146	0.0886	0.13			
GCCGCAGGCUAAGGAUAUUGCGUGAUCACAUGAGGAUCACCCAUGUCAAUAUCGCUACGGAAGAGCAAGAAGGUAGCGCCGCAG [Eternabot solution 10] (Eterna round: R96, puzzle: Same State NG 2)	0.188	0.182	0.127			
GCCGCGAAGCGAGGAUAUACUGUCCGAGAGCCGCAAACAUGAGGAUCACCCAUGUAGGUGAGACCGUAGAAGGCGUAAGCGCAA [Eternabot solution 19] (Eterna round: R96, puzzle: Same State NG 2)	0.046	0.235	0.331			
GCCGCGUUUCGCGCCUACAUGAGGAUCACCCAUGUAUGUAGGCAGGAUAUCGUUUGCUUUGCAAACGAGAAGGGCUGUAGUGGC [salish99_SSNG3_R04_008] (Eterna round: R96, puzzle: Same State NG 3)	0.0704	0.165	0.188			
GCCGCGUUUCGCGCCUACAUGAGGAUCACCCAUGUAUGUAGGCAGGAUAUCGUUUGCUUUGCAAACGAGAAGGGCUGUUGUGGC [salish99_SSNG3_R04_009] (Eterna round: R96, puzzle: Same State NG 3)	0.0795	0.217	0.227			
GCCGGCUGGUGAGGAUAUGGCACCUUAUUGGUGCCAGAAGGCAUGUCAAUUGACAUGAGGAUCACCCAUGUAUUAUCGUUGGCG [salish99_SSNG1_r04_607] (Eterna round: R96, puzzle: Same State NG 1)	0.725	0.325	0.37			
GCCUCUGCUCCACAGGAUAUGCGCUGUUGUACAUGAGGAUCACCCAUGUGCAGCCGACCAGAGCUGCAGAAGGGUGAGAGAGAGU [Atisanesxe] (puzzle: Same State 2)				0.253	0.0286	0.243
GCGAAGAGGUAAGGAUAUUCAUGGCGUAGACAUGAGGAUCACCCAUGUAGGAGACGAAUUAGAAGGGAGAAGGUACCAGGACGC [AK SSNG2-V2-17] (Eterna round: R96, puzzle: Same State NG 2)	0.0609	0.101	0.187			
GCGACGGCGAAAGGAUAUCAAAAUCAACAGUGUUGAGAAGGUUCUCCGAGGGUCGCACAUGAGGAUCACCCAUGUCGCGAAUCU [Eternabot solution 35] (Eterna round: R96, puzzle: Same State NG 1)		0.00902				
GCGAGCGUACUUGCAACAUGAGGAUCACCCAUGUUAACUGGACAGGAUAUGGUACCGUUUCGGUACCAGAAGGGUUUUACAUGU [JL SSNG3 3.65] (Eterna round: R96, puzzle: Same State NG 3)	0.0351	0.0291	0.0356			
GCGAGCGUACUUGCAGACAUGAGGAUCACCCAUGUAACUGGACAGGAUAUGGUACCGUUUCGGUACCAGAAGGGUUCACUCAUG [JL SSNG3 3.58] (Eterna round: R96, puzzle: Same State NG 3)	0.388	0.119	0.176			
GCGAGCGUACUUGCUACAUGAGGAUCACCCAUGUCUAUUGGACAGGAUAUGGUACCGUUUCGGUACCAGAAGGGUUCAUCAUGU [JL SSNG3 3.72] (Eterna round: R96, puzzle: Same State NG 3)	0.4	0.0462	0.0346			
GCGAGCGUACUUGCUACAUGAGGAUCACCCAUGUUUCAUGGACAGGAUAUGGUACCGUUUCGGUACCAGAAGGGUUCACAUGUA [JL SSNG3 3.80] (Eterna round: R96, puzzle: Same State NG 3)	0.155	0.0988	0.315			
